Experimental data: a protein production outcome set (Wang et al. 2014)

Assay: label from the status in PepcDB records
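Note: failed if final PepcDB status was selected cloned or expressed and not failed if soluble or beyond.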

Sequence | protein production
MEHKIVHVGDIPVANDKPFTLFAGMNVLESRDLAMQICEHYVKVTDKLGIPYVFKASFDKANRSSVHSYRGPGLEEGMKIFQELKETFGVKIITDVHTEAQAQPVADVVDVIQLPAFLARQTDLVEAMAKTGAVINVKKPQFMSPGQVGNIVEKFAECGNDKVILCERGSCHGYDNLVVDMLGFGVMKQASNGSPIIFDVTHSLQMRDPSGAASGGRREQTVELAKAGLATGIAGLFIEAHPNPDKARCDGPSALPLDKLEPFLAQMKALDDLIKSFAHIDIR | not failed
QYCWQHRFPTGYFSICDRYMNGTCPEGNSCKFAHGNAELHEWEERRDALKMKLNKA | not failed
MADLTDALIDAALERGRSAHANEPRAAKARYDRSSARVIVDLENGCTFAFPPRLAQGLEGASDDQLCAVEILGQGYGLHWETLDVDLSLPGLMAGIFGTKAWMAKRAEPPPSAAKDAWSNLPR | not failed
MSRRKKAYQGRKIGSQLLATLESEARKKVGYLQVKTVAEGSNKDYDRTNDFYRGLGFKKLEIFPQLWNPQNPCQILIKKLE | failed
MHYRWTLLTLAASLLCVPSASGLAEFGIEGMGVVSTPANEARATLSPDGQRIVWASDRTGGTGGWDLWQAQLRGGRWQDAQPLPINTAQDETTPLFSADGRWLLFASTRPGGAGGSDLYRAPVDAQGAVGPVQSLGAAIDSAGNERAPTLSLDGTRLLFASDGHGGAGGMDLFVAHWDGQAFTAPVALVDINSAADELDAAWLGDGRALVWARGKTDDPSQLLLAICKDGHFVQGSPLPLSFNGPQERTFGAVVDTAKPGELLVTGSARAPRAGQLDIYRMKAPAADGDASCR | failed
MRNRTLADLDRVVALGGGHGLGRVLSSLSSLGSRLTGIVTTTDNGGSTGRIRRSEGGIAWGDMRNCLNQLITEPNVASAMFEYRFGGNGELSGHNLGNLMLKALDHLSVRPLEAINLIRNLLKVDTHLIPMSEHPVDLMAIDDQGHEVYGEVNIDQLTTPIQELLLTPNVPATREAVHAINEADLIIIGPGSFYTSLMPILLLKEIAQALRRTPAPMVYIGNLGRELSLPAANLKLESKLAIMEQYVGKKVIDAVIVGPKVDVSAVKERIVIQEVLEASDIPYRHDRQLLHNALEKALQALGLEHHHHHH | failed
MIKAYFGAETFTLNKDFAYILVIGTTDVSLIPGLTIAGATPELTHFTPAADAEYVILGKCKSINTIPVSPTGIPTPALLTRASLSFTKSLKIVVNAGSRITPKIPYIDLQGEPGKDIRKQALSIEKVNIIIENGIKLGEELSNEYELIMIGESIPAGTTTAMATLLALGYDAMDKVSSASPDNPKELKRKVVEEALRNLPTDPLQRLAKVSDPVLLGVAGISLGFRGKILLAGGTQMTAAAAIVNEFDKSKLKDIIIGTTKWIVEDKSADMLSLAKQVGVKVLASMLDLSISIHEGIRTYEKGYVKEGVGAGGSTIMAFIRGVSNSTLVRKIDELYSELVGSNNLNT | failed
MHRLRAAETGDIEAMTDLLLRHGPNPWNHLPEEGVRAHLRAIADGEVRAVLAERDDRLLGFASFRRTEDFAHYQPQRADAPRAYICEAVVHPAAAGQGLGSALLEAVLAQLADEGIEDVYIDRHEENLASAGMMRKAGFVELETYADPARRPNGSGRSTVCHRNLSLQRRAVR | failed
MTLTQQKVKFFSKAYHDVKRLYLSAFPPRERFPYFCLLLNSLRSLVTCYAYYDKERFVGFAYIIESKEQVFILFLAVNGSVRSKGYGSMILAQIREYAGRKPLILTIEPVEKDSPNSEQRRQRLSFYERNGYQLTSHYYYEGQERYQILTTEQSIDLERFQKLVKRAVLGLVLITV | failed
MRFMFLHPRLSLEGDPLGLMQLSASLKQRGHIVGLTLLTEDYIEAIRSFQPDMLGVSLMSSDAVMMHQVLNKVRMVFPDLFIIVGGPHPTFDPSCLMVLPVNAICVGEGDEALVEALEQYGREGHVEGIRNVGTVTTPVTLRPLVSDLDDLPFIDRDIVYAKNHIVRDFPLKTFAASRGCHFKCTYCFNHAYNAMYAGLGHVVRRRSVDHLIAEMRDVIARYPTSYIKISDDSFTYRVDSWLEEFAEKYPRLIGLPFYCLLRADVVTRDMVRLLREAGCRSVCMSIEAGAETVRRDVLNRRVSNEKIIESFDLFNEAGIAIYTNSMLAMPRATLADDIATLDLNIRCRPTLGHFTIMAPFPGTRIHDMCEKDGILPERCGGDGDIPTSTGELSKLTTYTDEEKNIQKNIVLLGPLVIRFPVLRGVFLRCLAKLPSNNILFKCIYTVTKNLLFKRIVPVRMSPLLMLRIAIAQVKAARTQVG | failed
MKEIQYEIVKEIAVLSASDSGYTKEINLISWNGREPKYDIRSFSPNREKCGKGITLNADEAAALLEALQKEVNSGD | failed
SLENVLASHSKMQGALEKVQIELGRRDSEIAGLKKERDLNQQRVQKLEAEVDQWQARMLVMEDQHNSEIESLQKALGVAREDNRKLAMSLEQALQTNNHLQTKLDHIQEQLESKELERQNLETFKDRMTEESKVEAELHAERIEALRKQFQTERETTKKVAQREVAELKKALDEANFRSVEVSRTNRELRQKLAELEKILESNKEKIKNQKTQIKLHLSAKANNAQNIERMKVVWETSSHFLDTL | not failed
MDRVMRDDLHIMPPPAPLAMQAQDFSAGFRDALAPPDSPQRDVAPWRVLAFSPAMAATLALVWLMGDWFSDSGISVLEAVLLALISFNFFWIAFAASTVLLGMLSLSRQPARARAGRAEPLKVALLMPVYNEVPWYVLGNARTMLEELKARGGQHQYAMFILSDTRDDAIAAQEQASVEALRTTLAPDLALYYRRRVENTDRKVGNIADWVAGWGGAWDAMLVLDADSLMTGRAIARLTDALARDPGAGLIQSFPQLIGAQSVFARMQQFANGVYGAAFAEGMARWCGQEGNYWGHNAIIRTAAFANCAGLPKLRSLSGREKLIMSHDFVEAGLLRRAGWSVRFLPRIRGSYEETPPTLIDHVLRDRRWCQGNLQHLNLLNARGFRSVSRFHMFHGAIGYLMSPIWFALLVMWALIGHGQDGSVLQYFSPDNPLFPQWPEMTEGRHVLIIVVMYAMLLLPKLLGVLALPLSGAHYSDFGGAGRFLLSFLSEVVLSILYAPILMVQQMIAVFRTFLGIQKGWSPQARDGGTYGLGTLVKCHMLETLSGLALGTGIALGLVSVWLAPIALSLALAVPLSALSGVSAGTARRLIGMREEFREPAITRSARAYRNELKTLLERGSRIHPAE | failed
MSTDFDRIYLNQSKFSGRFRIADSGLGWKISTSGGSAANQARKPFLLPATELSTVQWSRGCRGYDLKINTKNQGVIQLDGFSQDDYNLIKNDFHRRFNIQVEQREHSLRGWNWGKTDLARNEMVFALNGKPTFEIPYARINNTNLTSKNEVGIEFNIQDEEYQPAGDE | not failed
MNEREAKMYELEFPAPDVASDGVDGPTLIIAMQGYADAGLAVEASADHLLSALEHRPVAVFNNDELIDYRSRRPAVTIDHNIVVDANELKLSMDVLRDSNGTPFLLLSGPEPDLRWDAFSQAVADLVRRFGVRRTICIYAAPMTVPHTRPLIVSAHGNSLDLIKHHFSIDSKVTIPGSASLHIERLLNKNNIDVAGYTAHVPHYLSASAYPLATLKLLEAITTSTNLDFPLKTLEADAQKTALQVEEQVAGSQEIESVVKILEQQYDE | failed
VLAEYASRIVSAEEAVKHIKNGERVALSHAAGVPQSCVDALVQQADLFQNVEIYHMLCLGEGKYMAPEMAPHFRHITNFVGGNSRKAVEENRADFIPVFFYEVPSMIRKDILHIDVAIVQLSMPDENGYCSFGVSCDYSKPAAESAHLVIGEINRQMPYVHGDNLIHISKLDYIVMADYPIYSLAKPKIGEVEEAIGRNCAELIEDGATLQLGIGAIPDAALLFLKDKKDLGIHTEMFSDGVVELVRSGVITGKKKTLHPGKMVATFLMGSEDVYHFIDKNPDVELYPVDYVNDPRVIAQNDNMVSINSCIEIDLMGQVVSECIGSKQFSGTGGQVDYVRGAAWSKNGKSIMAIPSTAKNGTASRIVPIIAEGAAVTTLRNEVDYVVTEYGIAQLKGKSLRQRAEALIAIAHPDFREELTKHLRKRFG | not failed
MIHLVSLLALAFAVSLDSFGVGLTYGLRKMKIPFKSLLFIAGCSAVSILIAMGFGMTIQQYLSPAIAESLGGIILILIGCWALYQAFRPAKNGHKTKDDHVILNFEIKMLGVVIRILRKPMVADFDNSGAITGREAVILGIALSLDAFGAGIGAALIGFHPLYMAVSVAVMSALFVSLGMKSGYRFADSYWIKRFSFIPGLLLVLIGVFNLMM | failed
MTPNRRPRPSGAEVRRKIRGPDGLALLPSGRVSWLPDDFVHPVLVPLPGGDHHLRPIRETDTPLDYPAVMGSRERLWTVYGPAWGWPAATMTYEADRADLLRHEKEIAAHQSFNYALFDTAETALLGCVYIDPPERAGADGDISWWVVDELVDSTVERALDALVPQWIAADWPFERPRFIGREISWSDYLALPGIPTVP | failed
MATEKLPPLERYIRMLELLTAFPDGLALSELSAMIELPKASAHRLIKTLQELELAATSSPGSATYVTGPRLRKLAFMSADAQWVVAILRPFLRELTQEMGETAFVARLEGASVRTIAFEAPETPWRGFILPGYEMHPNAAASAKAILAFQDAATLKRALREPFERLTPQTNLSKERLLEEYAAIRQSGVATCIGEIDEGLAAVAVPIEVGGAAGLYSLGLTGPMNRVMALGVERAAERMMAYAARMASGLSAGLSAESARAAGLS | failed
MVQTIIDPVILPFNGDDTKSSLLTGGDPPSAAELAAKTVEDQLPREANPTAPAVAPLSLSLEDLKAILATVTKDLSQRLTAGSTS | failed
MARVLVSSPSSFFGSPLIKPSSSLRHSGVGGGGTAQFLPYRSNNNKLFTTSTTVRFSLNEIPPFHGLDSSVDIGAIFTRAESLLYTIADAAVVGADSVVTTDSSAVQKSGGWFGFISDAMELVLKILKDGLSAVHVPYAYGFAIILLTIIVKAATYPLTKQQVESTLAMQNLQPKIKAIQQRYAGNQERIQLETSRLYKQAGVNPLAGCLPTLATIPVWIGLYQALSNVANEGLFTEGFFWIPSLGGPTSIAARQSGSGISWLFPFVDGHPPLGWYDTVAYLVLPVLLIASQYVSMEIMKPPQTDDPAQKNTLLVFKFLPLMIGYFALSVPSGLSIYWLTNNVLSTAQQVYLRKLGGAKPNMDENASKIISAGRAKRSIAQPDDAGERFRQLKEQEKRSKKNKAVAKDTVELVEESQSESEEGSDDEEEEAREGALASSTTSKPLPEVGQRRSKRSKRKRTV | failed
MKRSCMPARSNRNRINSALRGQLLRYLLNGLVATAVHYTILRFTLEVLGLHSAGLANGIAAIFGIIVSFIGNRYFVFRIVQVPLAKQALLFILTYFCIALIHTCILYFWTDVYNLNYTLGFLMATAMQVVFSFFSNKFMVFK | failed
MKVSSKLLSITNHHEYLDLVTDGAKFRIYLLDENIIRIRGTFDDDFAPEESYALVKTAWADATDDLIGDERQRVTPIAVELTETADGYTVSNGRYTLEIHAEPFYFEIKDQNGVTVHKDLVKRSFVQDDLGRRFHYSAMGDHDKFYGFGEKSGKLNKFKRRMRMHNTDSLGWNAAKSDPLYKMIPFYIDFNTTTNIASGLYYNNTHDSVFDMDCEHSNYWLRYSYFQCDGGDLDVFFIGGPTIKQVVEHYTDLTGKSAMMPLPSLGYMGSTMFYTELDQDADQAILDFIDTCKKNGIPCDGFFLSSGYTSGKDGKRYVFNWNKKRFPDPQKFVAELKKRGALLAPNIKPGMLVTHPLADEFMEKDAYIKTPDGQGSQVDQYWGGDAHFVDFTNPHGRDAWEQKMTEALLSIGITSIWNDNNEYEINDTQAVVDAEGQKSTIGALKPIMPTMMAKAAKDAINRYDATVRPYLVNRAGFAGIQRYAQTWAGDNYTSWTNVKYNIPTILGMGLSGVANQGCDIGGFDGPLPEPELFVRWVQNGIFQPRFSIHSCNNDNTVTEPWTYPAYTKYIRAAIQLRYSLVPYLYSLLYEASTKGSPIMRPLVYEFQDDPQVAEESFEFMLGASLLVANVVDKGQTAKSVYLPAGVDWLDLKTSQYYTGGQTITIPVDLGSIPMFLKAGSIVPQSKGLMNLHNDVIDKLDVLIEPSRDAEFVVYEDDGVTNNYRQGETLETTIKTTATADGVVIDFSRVGQYQTQVKTMALAVCCPKIAPLSVDLADQSLPRYLNAAKFADAAEGWYFDGESRQVQIKYANPEVAGYAVKVNFSVKDLISI | failed
